Target: PggH (phosphoguanylyl guanylate hydrolase), VCA0593 of Vibrio cholerae (Vibrio cholerae El Tor N16961)
Test: SEC

Substance “PggH (phosphoguanylyl guanylate hydrolase), VCA0593 of Vibrio cholerae (enzyme)” has a stoichiometry N of 2.

From publication PMC8861645
